Assay results from article PMC2172640 (The Journal of Cell Biology, 2003).

B1: GST–LAP2β(137–298) (domain or fragment, UniProt Q62733 137-298, looked up)
chain: TRKLYEKKLLKLREQGAESRSSTPLPTVSSSAENTRQNGSNDSDRYSDNDEDSKIELKLEKREPLKGRAKTPVTLKQRRIEHNQSYSEAGVTETEWTSGSSKGGPLQALTRESTRGSRRTPRRRVEPSQHFRVDGAVISESTPIAETIKASSNDSLVANRLT
B2: GST–LAP2β(1–452) (domain or fragment, UniProt Q62733 1-452, looked up)
chain: MPEFLEDPSVLTKDKLKSELVANNVTLPAGEQRKDVYVQLYLQHLTARNRPPLAAGANSKGPPDFSSDEEREPTPVLGSGASVGRGRGAVGRKATKKTDKPRPEDKDDLDVTELSNEELLEQLVRYGVNPGPIVGTTRKLYEKKLLKLREQGAESRSSTPLPTVSSSAENTRQNGSNDSDRYSDNDEDSKIELKLEKREPLKGRAKTPVTLKQRRIEHNQSYSEAGVTETEWTSGSSKGGPLQALTRESTRGSRRTPRRRVEPSQHFRVDGAVISESTPIAETIKASSNDSLVANRLTGNFKHASSILPITEFSDITRRTPKKPLTRAEVGEKTEERRVERDILKEMFPYEASTPTGISASCRRPIKGAAGRPLELSDFRMEESFSSKYVPKYVPLADVKSEKTKKGRSVPMWIKMLLFALVAGFLFLVYQAMETNQGNPFTNFLQDTKISN
B3: GST–LAP2β(1–298) (domain or fragment, UniProt Q62733 1-298, looked up)
chain: MPEFLEDPSVLTKDKLKSELVANNVTLPAGEQRKDVYVQLYLQHLTARNRPPLAAGANSKGPPDFSSDEEREPTPVLGSGASVGRGRGAVGRKATKKTDKPRPEDKDDLDVTELSNEELLEQLVRYGVNPGPIVGTTRKLYEKKLLKLREQGAESRSSTPLPTVSSSAENTRQNGSNDSDRYSDNDEDSKIELKLEKREPLKGRAKTPVTLKQRRIEHNQSYSEAGVTETEWTSGSSKGGPLQALTRESTRGSRRTPRRRVEPSQHFRVDGAVISESTPIAETIKASSNDSLVANRLT
B4: GST–LAP2β(1–397) (domain or fragment, UniProt Q62733 1-397, looked up)
chain: MPEFLEDPSVLTKDKLKSELVANNVTLPAGEQRKDVYVQLYLQHLTARNRPPLAAGANSKGPPDFSSDEEREPTPVLGSGASVGRGRGAVGRKATKKTDKPRPEDKDDLDVTELSNEELLEQLVRYGVNPGPIVGTTRKLYEKKLLKLREQGAESRSSTPLPTVSSSAENTRQNGSNDSDRYSDNDEDSKIELKLEKREPLKGRAKTPVTLKQRRIEHNQSYSEAGVTETEWTSGSSKGGPLQALTRESTRGSRRTPRRRVEPSQHFRVDGAVISESTPIAETIKASSNDSLVANRLTGNFKHASSILPITEFSDITRRTPKKPLTRAEVGEKTEERRVERDILKEMFPYEASTPTGISASCRRPIKGAAGRPLELSDFRMEESFSSKYVPKYVPLA
B5: GST–LAP2β(243–373) (domain or fragment, UniProt Q62733 243-373, looked up)
chain: QALTRESTRGSRRTPRRRVEPSQHFRVDGAVISESTPIAETIKASSNDSLVANRLTGNFKHASSILPITEFSDITRRTPKKPLTRAEVGEKTEERRVERDILKEMFPYEASTPTGISASCRRPIKGAAGRP
B6: GST–LAP2β(299–397) (domain or fragment, UniProt Q62733 299-397, looked up)
chain: GNFKHASSILPITEFSDITRRTPKKPLTRAEVGEKTEERRVERDILKEMFPYEASTPTGISASCRRPIKGAAGRPLELSDFRMEESFSSKYVPKYVPLA
B7: GST–LAP2β(243–397) (domain or fragment, UniProt Q62733 243-397, looked up)
chain: QALTRESTRGSRRTPRRRVEPSQHFRVDGAVISESTPIAETIKASSNDSLVANRLTGNFKHASSILPITEFSDITRRTPKKPLTRAEVGEKTEERRVERDILKEMFPYEASTPTGISASCRRPIKGAAGRPLELSDFRMEESFSSKYVPKYVPLA
B8: GST–LAP2β(137–373) (domain or fragment, UniProt Q62733 137-373, looked up)
chain: TRKLYEKKLLKLREQGAESRSSTPLPTVSSSAENTRQNGSNDSDRYSDNDEDSKIELKLEKREPLKGRAKTPVTLKQRRIEHNQSYSEAGVTETEWTSGSSKGGPLQALTRESTRGSRRTPRRRVEPSQHFRVDGAVISESTPIAETIKASSNDSLVANRLTGNFKHASSILPITEFSDITRRTPKKPLTRAEVGEKTEERRVERDILKEMFPYEASTPTGISASCRRPIKGAAGRP
B9: GST–LAP2β(299–373) (domain or fragment, UniProt Q62733 299-373, looked up)
chain: GNFKHASSILPITEFSDITRRTPKKPLTRAEVGEKTEERRVERDILKEMFPYEASTPTGISASCRRPIKGAAGRP

molecular target: T1, HA95 (human (endogenous in Bjab and HeLa), UniProt Q9ULX6 1-646); assay: far-Western, overlay or dot blot
T1 sequence (looked up): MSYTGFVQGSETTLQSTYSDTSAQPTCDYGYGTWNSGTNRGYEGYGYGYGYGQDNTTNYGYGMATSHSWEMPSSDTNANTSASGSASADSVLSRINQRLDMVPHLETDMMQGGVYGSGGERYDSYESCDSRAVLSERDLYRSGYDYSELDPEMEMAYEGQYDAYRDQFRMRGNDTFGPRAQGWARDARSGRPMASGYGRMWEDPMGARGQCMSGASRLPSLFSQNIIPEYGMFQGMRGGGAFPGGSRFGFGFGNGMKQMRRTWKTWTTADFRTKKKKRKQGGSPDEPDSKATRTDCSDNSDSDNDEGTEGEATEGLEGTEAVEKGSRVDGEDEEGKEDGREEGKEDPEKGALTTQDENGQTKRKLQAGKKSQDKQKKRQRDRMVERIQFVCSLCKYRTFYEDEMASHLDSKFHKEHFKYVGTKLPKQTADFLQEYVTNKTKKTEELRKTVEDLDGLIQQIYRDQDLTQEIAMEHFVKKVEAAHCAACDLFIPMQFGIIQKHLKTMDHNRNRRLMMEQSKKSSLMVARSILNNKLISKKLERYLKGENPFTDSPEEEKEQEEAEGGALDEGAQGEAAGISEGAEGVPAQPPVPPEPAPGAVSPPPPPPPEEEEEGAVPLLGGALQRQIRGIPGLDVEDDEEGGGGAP

Binding result, binds:
B1
B2
B3
B4
B5
B6
B7
B8
B9
